Columns and labels:
[1] = biological target: T1, GST-Tax_(CACA) (HTLV-1 Tax with C23 and C29 changed to alanine, N-terminal GST fusion) (HTLV-1, UniProt P03409 1-353, C23A | C29A); experiment: BLI
[2] = biological target: T1, GST-Tax_(CACA) (HTLV-1 Tax with C23 and …); experiment: BLI; remark: listed apart in the source

B1: UPF1-HD_(DE636AA), histidine-tagged (domain or fragment)
chain: RYEDAYQYQNIFGPLVKLEADYDKKLKESQTQDNITVRWDLGLNKKRIAYFTLPKTDSDMRLMQGDEICLRYKGDLAPLWKGIGHVIKVPDNYGDEIAIELRSSVGAPVEVTHNFQVDFVWKSTSFDRMQSALKTFAVDETSVSGYIYHKLLGHEVEDVIIKCQLPKRFTAQGLPDLNHSQVYAVKTVLQRPLSLIQGPPGTGKTVTSATIVYHLARQGNGPVLVCAPSNIAVDQLTEKIHQTGLKVVRLCAKSREAIDSPVSFLALHNQIRNMDSMPELQKLQQLKDETGELSSADEKRYRALKRTAERELLMNADVICCTCVGAGDPRLAKMQFRSILIAASTQATEPECMVPVVLGAKQLILVGDHCQLGPVVMCKKAAKAGLSQSLFERLVVLGIRPIRLQVQYRMHPALSAFPSNIFYEGSLQNGVTAADRVKKGFDFQWPQPDKPMFFYVTQGQEEIASSGTSYLNRTEAANVEKITTKLLKAGAKPDQIGIITPYEGQRSYLVQYMQFSGSLHTKLYQEVEIASVDAFQGREKDFIILSCVRANEHQGIGFLNDPRRLNVALTRARYGVIIVGNPKALSKQPLWNHLLNYYKEQKVLVEGPLNNLRESLMQFS
Kd [1]: 31.4 nM | koff [2]: 0.000283 s⁻¹

B2: UPF1-HD_(R843S), histidine-tagged (domain or fragment)
chain: RYEDAYQYQNIFGPLVKLEADYDKKLKESQTQDNITVRWDLGLNKKRIAYFTLPKTDSDMRLMQGDEICLRYKGDLAPLWKGIGHVIKVPDNYGDEIAIELRSSVGAPVEVTHNFQVDFVWKSTSFDRMQSALKTFAVDETSVSGYIYHKLLGHEVEDVIIKCQLPKRFTAQGLPDLNHSQVYAVKTVLQRPLSLIQGPPGTGKTVTSATIVYHLARQGNGPVLVCAPSNIAVDQLTEKIHQTGLKVVRLCAKSREAIDSPVSFLALHNQIRNMDSMPELQKLQQLKDETGELSSADEKRYRALKRTAERELLMNADVICCTCVGAGDPRLAKMQFRSILIDESTQATEPECMVPVVLGAKQLILVGDHCQLGPVVMCKKAAKAGLSQSLFERLVVLGIRPIRLQVQYRMHPALSAFPSNIFYEGSLQNGVTAADRVKKGFDFQWPQPDKPMFFYVTQGQEEIASSGTSYLNRTEAANVEKITTKLLKAGAKPDQIGIITPYEGQRSYLVQYMQFSGSLHTKLYQEVEIASVDAFQGREKDFIILSCVSANEHQGIGFLNDPRRLNVALTRARYGVIIVGNPKALSKQPLWNHLLNYYKEQKVLVEGPLNNLRESLMQFS
Kd [1]: 66.6 nM | koff [2]: 0.000877 s⁻¹

B3: UPF1 helicase core domain (UPF1-HD; aa 295-914), C-terminal hexahistidine (domain or fragment)
chain: RYEDAYQYQNIFGPLVKLEADYDKKLKESQTQDNITVRWDLGLNKKRIAYFTLPKTDSDMRLMQGDEICLRYKGDLAPLWKGIGHVIKVPDNYGDEIAIELRSSVGAPVEVTHNFQVDFVWKSTSFDRMQSALKTFAVDETSVSGYIYHKLLGHEVEDVIIKCQLPKRFTAQGLPDLNHSQVYAVKTVLQRPLSLIQGPPGTGKTVTSATIVYHLARQGNGPVLVCAPSNIAVDQLTEKIHQTGLKVVRLCAKSREAIDSPVSFLALHNQIRNMDSMPELQKLQQLKDETGELSSADEKRYRALKRTAERELLMNADVICCTCVGAGDPRLAKMQFRSILIDESTQATEPECMVPVVLGAKQLILVGDHCQLGPVVMCKKAAKAGLSQSLFERLVVLGIRPIRLQVQYRMHPALSAFPSNIFYEGSLQNGVTAADRVKKGFDFQWPQPDKPMFFYVTQGQEEIASSGTSYLNRTEAANVEKITTKLLKAGAKPDQIGIITPYEGQRSYLVQYMQFSGSLHTKLYQEVEIASVDAFQGREKDFIILSCVRANEHQGIGFLNDPRRLNVALTRARYGVIIVGNPKALSKQPLWNHLLNYYKEQKVLVEGPLNNLRESLMQFS
Kd [1]: 16.6 nM | koff [2]: 0.00038 s⁻¹

B4: UPF1-HD_(R843C), histidine-tagged (domain or fragment)
chain: RYEDAYQYQNIFGPLVKLEADYDKKLKESQTQDNITVRWDLGLNKKRIAYFTLPKTDSDMRLMQGDEICLRYKGDLAPLWKGIGHVIKVPDNYGDEIAIELRSSVGAPVEVTHNFQVDFVWKSTSFDRMQSALKTFAVDETSVSGYIYHKLLGHEVEDVIIKCQLPKRFTAQGLPDLNHSQVYAVKTVLQRPLSLIQGPPGTGKTVTSATIVYHLARQGNGPVLVCAPSNIAVDQLTEKIHQTGLKVVRLCAKSREAIDSPVSFLALHNQIRNMDSMPELQKLQQLKDETGELSSADEKRYRALKRTAERELLMNADVICCTCVGAGDPRLAKMQFRSILIDESTQATEPECMVPVVLGAKQLILVGDHCQLGPVVMCKKAAKAGLSQSLFERLVVLGIRPIRLQVQYRMHPALSAFPSNIFYEGSLQNGVTAADRVKKGFDFQWPQPDKPMFFYVTQGQEEIASSGTSYLNRTEAANVEKITTKLLKAGAKPDQIGIITPYEGQRSYLVQYMQFSGSLHTKLYQEVEIASVDAFQGREKDFIILSCVCANEHQGIGFLNDPRRLNVALTRARYGVIIVGNPKALSKQPLWNHLLNYYKEQKVLVEGPLNNLRESLMQFS
Kd [1]: 53.8 nM | koff [2]: 0.000437 s⁻¹

— publication PMC5789848 (2018)
